Source: article PMC4148193, “Chromatin Insulator Factors Involved in Long-Range DNA Interactions and Their Role in the Folding of the Drosophila Genome” (PLoS Genetics, 2014)

Key:
Chromator = target: T1, Chromator (Drosophila, UniProt Q86BS3 1-926); test: competition; unlabeled DNAS vs 2.5 nM Cy3B-DNAS, 638 nM Chromator; FA/FCS: 30 mM Tris/HCl pH 7.5, 100 mM NaCl, 20 uM ZnSO4, 5 mM mercaptoethanol, 0.01 mg/ml BSA, 0.004% Tween20, 2.5 nM DNA; EMSA: 150 mM NaCl, 30 mM Tris/HCl pH; settings: protein: recombinant; tags: N-term 6xHis; blunt
T1 sequence: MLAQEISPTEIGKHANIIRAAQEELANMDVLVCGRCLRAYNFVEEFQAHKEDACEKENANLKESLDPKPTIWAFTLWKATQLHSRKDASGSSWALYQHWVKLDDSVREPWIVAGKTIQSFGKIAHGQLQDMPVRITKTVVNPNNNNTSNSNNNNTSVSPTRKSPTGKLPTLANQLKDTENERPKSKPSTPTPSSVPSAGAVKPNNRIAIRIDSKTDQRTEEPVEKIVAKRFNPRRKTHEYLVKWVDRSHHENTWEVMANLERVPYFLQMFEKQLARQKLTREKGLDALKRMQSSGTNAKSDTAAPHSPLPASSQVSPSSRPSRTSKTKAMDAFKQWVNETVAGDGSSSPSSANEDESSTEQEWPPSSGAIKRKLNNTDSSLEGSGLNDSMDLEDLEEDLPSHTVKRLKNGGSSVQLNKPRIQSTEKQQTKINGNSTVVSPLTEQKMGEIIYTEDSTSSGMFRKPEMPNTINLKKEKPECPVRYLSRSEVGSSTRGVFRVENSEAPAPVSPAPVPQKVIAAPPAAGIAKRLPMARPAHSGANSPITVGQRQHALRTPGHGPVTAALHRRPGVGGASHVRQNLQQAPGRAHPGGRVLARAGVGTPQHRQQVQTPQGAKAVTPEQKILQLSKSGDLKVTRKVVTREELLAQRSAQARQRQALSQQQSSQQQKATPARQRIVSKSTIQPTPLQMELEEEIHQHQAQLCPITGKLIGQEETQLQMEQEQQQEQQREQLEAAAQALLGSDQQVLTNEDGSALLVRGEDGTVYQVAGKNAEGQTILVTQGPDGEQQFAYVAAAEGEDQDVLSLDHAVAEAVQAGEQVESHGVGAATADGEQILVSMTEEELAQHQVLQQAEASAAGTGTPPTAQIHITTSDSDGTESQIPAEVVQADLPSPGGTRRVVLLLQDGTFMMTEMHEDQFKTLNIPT

BEAF32 (BEAF32B);CP190-C = target: T2, BEAF32 (BEAF32B);CP190-C (Drosophila;Drosophila, UniProt Q94513;Q24478 1-282;599-1096, |); test: FCS/PIE-FCCS; 400 nM BEAF32, 50 nM CP190-C; diffusion time slightly decreased, BEAF32 stays bound, no bridging; FA/FCS: 30 mM Tris/HCl pH 7.5, 100 mM NaCl, 20 uM ZnSO4, 5 mM mercaptoethanol, 0.01 mg/ml BSA, 0.004% Tween20, 2.5 nM DNA; EMSA: 150 mM NaCl, 30 mM Tris/HCl pH; settings: protein: recombinant;recombinant; tags: N-term MBP; C-term 6xHis;N-term 6xHis; blunt
T2 sequence 1: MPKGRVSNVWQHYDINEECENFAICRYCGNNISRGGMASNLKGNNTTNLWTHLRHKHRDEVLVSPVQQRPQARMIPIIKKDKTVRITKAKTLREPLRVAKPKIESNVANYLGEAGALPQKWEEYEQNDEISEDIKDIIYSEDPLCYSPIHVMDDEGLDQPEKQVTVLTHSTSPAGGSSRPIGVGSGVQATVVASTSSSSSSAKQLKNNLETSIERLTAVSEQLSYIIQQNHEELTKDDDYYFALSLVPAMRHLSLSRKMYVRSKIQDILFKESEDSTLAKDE
T2 sequence 2: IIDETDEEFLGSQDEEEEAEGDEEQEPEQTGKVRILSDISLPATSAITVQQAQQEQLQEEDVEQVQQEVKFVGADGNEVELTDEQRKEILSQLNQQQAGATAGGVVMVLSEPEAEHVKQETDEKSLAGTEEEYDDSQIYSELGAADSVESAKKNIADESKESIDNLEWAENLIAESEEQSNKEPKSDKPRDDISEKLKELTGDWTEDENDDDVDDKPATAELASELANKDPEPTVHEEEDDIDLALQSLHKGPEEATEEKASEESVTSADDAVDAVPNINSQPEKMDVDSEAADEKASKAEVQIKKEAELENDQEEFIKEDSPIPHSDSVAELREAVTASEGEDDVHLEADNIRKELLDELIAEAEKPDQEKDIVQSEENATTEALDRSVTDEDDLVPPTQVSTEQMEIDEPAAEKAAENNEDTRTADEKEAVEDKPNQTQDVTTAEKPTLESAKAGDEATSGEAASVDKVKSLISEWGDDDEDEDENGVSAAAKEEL

B1: DNAS (dsDNA)
DNA 1: AGAAGTCAGCGCGATAGCATCGATATTTTCGTGACACGCTTGTCATCCGATAGGTAGT
DNA 2: ACTACCTATCGGATGACAAGCGTGTCACGAAAATATCGATGCTATCGCGCTGACTTCT
Question: How did the Ki (Chromator) turn out when B1 was run?
Answer: 514 ± 360 nM

Question: Does B1 bind (BEAF32 (BEAF32B);CP190-C)?
Answer: binds
